Earlier results in paper PMC8616177.
Like-named read-outs stand apart in the source and are kept apart here.

Key:
EGFR (Homo sapiens) [1] = target: EGFR (Homo sapiens) (UniProt P00533)
EGFR (Homo sapiens) [2] = target: EGFR (Homo sapiens) (UniProt P00533); remark: listed apart in the source

Row | Kd (EGFR (Homo sapiens) [1]) [nM] | Substance | Kd (EGFR (Homo sapiens) [2]) [nM]
1 | 1.5 | EGF (from UniProt P01133) | –
2 | – | GE11 | 22
